Test results published in patent publication US20190367592A1 (AC IMMUNE, published 2019).
Where no end group is shown, it is not given here.

What was measured:
[1] = target: T1, full-length human Tau (flTau) (human, UniProt P10636-8 1-441); assay: SPR, hybridoma Ab on anti-IgG chip, flTau analyte
T1 construct: range 1-441; bought (SignalChem); also called human Tau-441
Outline: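 Unpurified antibodies from serum-free hybridoma supernatants were captured on an anti-IgG SPR chip (Biacore T-100), and flTau was flowed as analyte. KD was obtained from kinetic analysis with a 1:1 Langmuir fit.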

[2] = target: T2, recombinant human Tau monomer, 2N4R isoform (amino acids 2-441) (human, UniProt P10636-8 2-441); assay: SPR, mIgG2a captured, Tau monomer analyte, 1:1 fit
T2 construct: range 2-441; N-terminal His-tag removed with TEV protease; also called monomeric Tau
Outline: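 Antibodies in mIgG2a format captured on anti-mouse IgG surface at 1 μg/ml (30 or 45 s) or 0.1 μg/ml (70 or 150 s), 10 μl/min, in HBSP (10 mM HEPES pH7.4, 150 mM NaCl, 0.05% Tween 20). Tau monomer flowed as analyte; association 180-480 s, dissociation 300-600 s, 1:1 fit.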
Target sequence in this assay (P10636 other isoform, or with tags, fused parts or gaps limits assumed): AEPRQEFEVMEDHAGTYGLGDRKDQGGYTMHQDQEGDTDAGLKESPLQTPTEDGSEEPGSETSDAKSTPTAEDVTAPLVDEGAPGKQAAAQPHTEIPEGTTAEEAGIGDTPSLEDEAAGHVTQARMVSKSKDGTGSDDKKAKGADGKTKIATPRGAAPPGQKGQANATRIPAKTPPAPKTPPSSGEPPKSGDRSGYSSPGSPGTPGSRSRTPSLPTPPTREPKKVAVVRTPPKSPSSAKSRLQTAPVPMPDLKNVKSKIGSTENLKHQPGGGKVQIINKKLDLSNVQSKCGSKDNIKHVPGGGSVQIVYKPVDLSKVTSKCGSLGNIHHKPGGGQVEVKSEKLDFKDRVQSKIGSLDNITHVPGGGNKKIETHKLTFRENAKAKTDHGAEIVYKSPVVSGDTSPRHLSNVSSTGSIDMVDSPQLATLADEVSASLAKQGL

[3] = target: T2, recombinant human Tau monomer, 2N4R …; assay: SPR single-cycle, Tau monomer amine-coupled
Description: (§1) Human monomer Tau protein was covalently coupled to a Biacore Series S CM5 chip using the Biacore Amine Coupling Kit (GE Life Sciences), resulting in immobilization to a level of approximately 128 RU. Direct binding of 37D3-H9 in both Fab and IgG formats was monitored using the single-cycle kinetics experimental format with five association periods of 300s each and antibody concentrations of 1, 2, 4, 8 and 16 nM (IgG) or 5, 10, 20, 40 and 80 nM (Fab). Dissociation was monitored for 7200 seconds (Fab) or for 14400 seconds (IgG). A value for the dissociation rate was calculated by fitting a 1:1 binding model to the data.

[4] = target: T2, recombinant human Tau monomer, 2N4R …; assay: SPR single-cycle, Tau monomer amine-coupled, IgG analyte; IgG (bivalent, avidity); Tau monomer on the chip
Description: as §1

MAPT(2-24) = target: T3, MAPT(2-24) (human, biotinylated); assay: ELISA, biotinylated peptide on Neutravidin plate, IgG titrated, A450 nm
T3 construct: also called Tau fragment 2-24
T3 peptide: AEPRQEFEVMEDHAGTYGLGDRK
Description: (§2) Following a comparison of 37D3-H9 binding to biotinylated Tau monomer and biotinylated peptide (MAPT_10-24), binding of 37D3-H9 to additional biotinylated peptides was also assessed. Nunc maxisorp 96-well microplates were coated at 4° C. for >12 hours with Neutravidin diluted to 2 μg/ml in 50 mM Sodium Carbonate Buffer, pH 9.6. All subsequent incubations were performed at room temperature. After coating, plates were blocked with Superblock™ (PBS) Blocking Buffer (Thermo Fisher Scientific) for two hours then washed thoroughly with PBS, 0.05% Polysorbate 20. Wells were then exposed to biotinylated Tau peptides (Table 20) or Avi-tag biotinylated Tau monomer at 1 μg/ml for one hour and washed as previously. Peptides were synthesized using standard solid-phase Fmoc chemistry (see, e.g., Fmoc solid phase peptide synthesis: A practical approach; Chan, W. C., White, P. D., Eds.; Oxford University Press: New York, 2000). Antibodies 37D3-H9 mIgG2a and hu37D3-H9.v5 hIgG1, serially diluted from 500 nM to 50 pM in 90% Superblock™ (PBS) Blocking Buffer, were allowed to bind biotinylated-Tau coated wells for 90 minutes. Wells were washed as previously and bound antibody detected with peroxidase-conjugated secondary antibody (Invitrogen/Life Technologies) diluted 1/1000 in Superblock™ Blocking Buffer (Rabbit anti-Mouse IgG or Goat Anti-Human IgG (H+L) respectively). After twenty minutes wells were washed as previously and signal developed with TMB Microwell 2-Component Substrate (KPL). Reactions were stopped by addition of 1M Phosphoric Acid and absorbance at 450 nm was measured with a SpectraMax M2 platereader.

MAPT(2-34) = target: T4, MAPT(2-34) (human, biotinylated); assay: as above
T4 construct: also called Tau fragment 2-34
T4 peptide: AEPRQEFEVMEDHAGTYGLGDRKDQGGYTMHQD
Description: as §2

Tau fragment 2-21 L20A = target: T5, Tau fragment 2-21 L20A (human, UniProt P10636-8 2-21); assay: alanine scanning of Tau fragment 2-21
T5 construct: range 2-21
T5 peptide (looked up): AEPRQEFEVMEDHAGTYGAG

Tau fragment 2-21 Y18A = target: T6, Tau fragment 2-21 Y18A (human, UniProt P10636-8 2-21); assay: alanine scanning of Tau fragment 2-21
T6 construct: range 2-21
T6 peptide (looked up): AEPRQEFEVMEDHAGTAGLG

Tau fragment 28-42 = target: T7, Tau fragment 28-42 (human, UniProt P10636-8 28-42, not fully specified); assay: ELISA on Tau 15-mer peptides, O.D.; conditions of this panel not given
T7 construct: range 28-42
T7 peptide (looked up): GYTMHQDQEGDTDAG

MAPT(10-24) = target: T8, MAPT(10-24) (human, also: biotinylated, site not given here); assay: as above
T8 construct: also called Tau fragment 10-24
T8 peptide: VMEDHAGTYGLGDRK

Tau fragment 1-15 = target: T9, Tau fragment 1-15 (human, UniProt P10636-8 1-15); assay: as above
T9 construct: range 1-15
T9 peptide (looked up): MAEPRQEFEVMEDHA

Tau fragment 37-51 = target: T10, Tau fragment 37-51 (human, UniProt P10636-8 37-51); assay: as above
T10 construct: range 37-51
T10 peptide (looked up): GDTDAGLKESPLQTP

Tau fragment 19-33 = target: T11, Tau fragment 19-33 (human, UniProt P10636-8 19-33, not fully specified); assay: as above
T11 construct: range 19-33
T11 peptide (looked up): GLGDRKDQGGYTMHQ

Tau fragment 9-23 = target: T12, Tau fragment 9-23 (human, UniProt P10636-8 9-23); assay: 15mer offset peptides
T12 construct: range 9-23
T12 peptide (looked up): EVMEDHAGTYGLGDR

Tau fragment 7-21 = target: T13, Tau fragment 7-21 (human, UniProt P10636-8 7-21); assay: 15mer offset peptides
T13 construct: range 7-21
T13 peptide (looked up): EFEVMEDHAGTYGLG

Tau fragment 8-22 = target: T14, Tau fragment 8-22 (human, UniProt P10636-8 8-22); assay: 15mer offset peptides
T14 construct: range 8-22
T14 peptide (looked up): FEVMEDHAGTYGLGD

Tau fragment 11-25 = target: T15, Tau fragment 11-25 (human, UniProt P10636-8 11-25, not fully specified); assay: 15mer offset peptides
T15 construct: range 11-25
T15 peptide (looked up): MEDHAGTYGLGDRKD

T1 sequence (P10636 other isoform, or with tags, fused parts or gaps limits assumed): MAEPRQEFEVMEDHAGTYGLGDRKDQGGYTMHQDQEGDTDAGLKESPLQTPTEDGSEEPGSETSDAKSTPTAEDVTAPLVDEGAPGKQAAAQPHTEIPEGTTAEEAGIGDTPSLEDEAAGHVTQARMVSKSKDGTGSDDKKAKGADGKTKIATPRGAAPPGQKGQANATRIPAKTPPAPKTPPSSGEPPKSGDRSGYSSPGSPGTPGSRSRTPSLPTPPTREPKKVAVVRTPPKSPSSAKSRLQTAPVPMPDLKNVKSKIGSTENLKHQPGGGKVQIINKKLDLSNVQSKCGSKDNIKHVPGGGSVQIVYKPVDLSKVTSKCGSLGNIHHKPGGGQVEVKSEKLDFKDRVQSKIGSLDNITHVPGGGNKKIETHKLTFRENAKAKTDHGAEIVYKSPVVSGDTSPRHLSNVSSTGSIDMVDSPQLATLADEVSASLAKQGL

B1: 37D3-H9 (antibody, mouse IgG2a, V domains shown)
VH: EVQLVESGGDLAKPGGSLKLSCTASGLIFRSYGMSWVRQTPDKRLEWVATINSGGTYTYYPDSVKGRFTISRDNAKNTLYLQMSSLKSEDTAMYYCANSYSGAMDYWGQGTSVTVSS
VL: DDLLTQTPLSLPVSLGDPASISCRSSQSIVHSNGNTYFEWYLQKPGQSPKLLIYKVSNRFSGVPDRFSGSGSGTDFTLKISRVEAEDLGVYYCFQGSLVPWTFGGGTKLEIK
notes: also called 37D3-H9 mIgG2a; 37D3-H9 IgG
[1]
  Kd: 1 nM
[2]
  Kd: 1.6 nM
  koff: 0.0001 s⁻¹
  kon: 100000 M⁻¹ s⁻¹
[3]
  fold difference in dissociation rate, Fab against IgG: 45 fold
[4]
  koff: 1.1e-05 s⁻¹
MAPT(2-24)
  binding result: binds
MAPT(2-34)
  binding result: binds
Tau fragment 2-21 L20A
  binding result: no binding
Tau fragment 2-21 Y18A
  binding result: no binding
Tau fragment 28-42
  binding result: no binding (tested: not given)
MAPT(10-24)
  binding result: binds
Tau fragment 1-15
  binding result: no binding (tested: not given)
Tau fragment 37-51
  binding result: no binding (tested: not given)
Tau fragment 19-33
  binding result: no binding (tested: not given)
Tau fragment 9-23
  binding result: binds
Tau fragment 7-21
  binding result: binds
Tau fragment 8-22
  binding result: binds
Tau fragment 11-25
  binding result: binds
